Experimental data: paper PMC7115876 (Nature, 2020)

Biological target: human β-arrestin 1 (L68C, R169E) (human, UniProt P49407 2-418, L68C | R169E)
Assay: cryo-EM structure

Sequence of human β-arrestin 1 (L68C, R169E) (P49407 2-418 L68C/R169E): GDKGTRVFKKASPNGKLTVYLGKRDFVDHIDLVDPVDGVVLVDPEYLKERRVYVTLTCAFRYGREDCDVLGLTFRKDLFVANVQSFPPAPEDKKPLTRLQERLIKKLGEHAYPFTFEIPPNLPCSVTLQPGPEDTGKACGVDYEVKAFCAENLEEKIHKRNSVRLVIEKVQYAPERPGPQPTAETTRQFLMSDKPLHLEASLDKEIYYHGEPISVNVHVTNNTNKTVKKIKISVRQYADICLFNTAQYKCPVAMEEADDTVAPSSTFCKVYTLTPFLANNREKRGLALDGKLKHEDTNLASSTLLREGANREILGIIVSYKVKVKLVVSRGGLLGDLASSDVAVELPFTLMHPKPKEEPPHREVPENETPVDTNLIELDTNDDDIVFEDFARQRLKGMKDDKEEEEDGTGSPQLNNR

B1: β1AR6P (turkey β1AR construct β83 ligated by sortase A to the phosphopeptide V2R6P) (receptor)
chain: not shown
modifications: six phosphoresidues in the V2R6P part: GGGDE[pS]A[pT][pT]A[pS][pS][pS]LAKDTSS
B1: binds.
